In the supplement of paper PMC10126150:
± gives the standard deviation of the averaged measurements.

Tested on: ATP
Experiment: switch fluorescence ratio, 500 uM ATP over buffer (Cy3 cluster intensity, sum of 5 cycles each) (fold (ratio)); higher = stronger signal-on switching upon ATP binding; sequences stand for … in TCGTCGGCAGCGTCAGATGTGTATAAGAGACAGTTTTTTTTTTTTTTTTTTTTTTTTT…TC
Conditions: aptamer strand: ATP DNA aptamer (quencher-CACCTGGGGGAGTATTGCGGAGGAAGG + anchor), 100 nM annealed; ATP concentration: 500 uM
Outline: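 The fluorescence ratio divides summed target-cycle Cy3 intensity by summed buffer-cycle Cy3 intensity for each cluster and is averaged per switch-domain sequence. Cy3-labelled switching-strand clusters on a modified Illumina MiSeq flow-cell were annealed to 100 nM quencher-labelled ATP aptamer, then imaged in selection buffer and again after 15 min with 500 uM ATP at 22 °C. Five such cycles were run, with NaOH stripping and re-annealing between them, and clusters outside 100-1000 RFU were excluded.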
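Further: ATP exposure 15 min at 22 °C before imaging.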

| Sequence | switch fluorescence ratio |
| --- | --- |
| GTTTTTGGGG | 0.987 ± 0.055 |
| GTTTTTTAAA | 0.987 ± 0.04 |
| GTTTTTTTGG | 1 ± 0.018 |
| TAAAAAAACG | 1.1 ± 0.021 |
| TAAAAAAGCC | 1.03 ± 0.091 |
| TAAAAAATGT | 1 ± 0.019 |
| TAAAAAGAGC | 0.984 ± 0.022 |
| TAAAAAGGTG | 1.12 ± 0.11 |
| TAAAAATAGC | 1.024 ± 0.0095 |
| TAAAAATATG | 0.9907 ± 0.0013 |
| TAAAAATCAT | 1.01 ± 0.034 |
| TAAAAATCGA | 0.993 ± 0.0013 |
| TAAAAATGAC | 1.07 ± 0.1 |
| TAAAAATGCG | 0.951 ± 0.065 |
| TAAAAATTTA | 1.01 ± 0.048 |
| TAAAACGCCC | 1.15 ± 0.04 |
| TAAAAGACTG | 0.992 ± 0.094 |
| TAAAAGGGTC | 0.942 ± 0.085 |
| TAAAATAGAG | 1 ± 0.035 |
| TAAAATCCTG | 1.05 ± 0.039 |
| TAAAATGGAC | 1.03 ± 0.028 |
| TAAAATGGCG | 1 ± 0.055 |
| TAAAATGGGA | 0.981 ± 0.027 |

| Sequence | switch fluorescence ratio |
| --- | --- |
| TAAAATGTTA | 0.985 ± 0.0063 |
| TAAAATGTTT | 0.998 ± 0.013 |
| TAAAATTCTT | 1.01 ± 0.025 |
| TAAACAATTT | 0.978 ± 0.013 |
| TAAACCCTGC | 1.07 ± 0.032 |
| TAAACCGATG | 1.21 ± 0.048 |
| TAAACCTGTG | 1.05 ± 0.088 |
| TAAACGCCTC | 1.08 ± 0.058 |
| TAAACGGGAT | 0.999 ± 0.019 |
| TAAACGGGCG | 0.983 ± 0.019 |
| TAAACGGGTA | 1.04 ± 0.02 |
| TAAAGAACCA | 1.016 ± 0.0053 |
| TAAAGAAGGT | 1.01 ± 0.033 |
| TAAAGACCGA | 1.08 ± 0.048 |
| TAAAGAGAGA | 1.03 ± 0.012 |
| TAAAGAGAGC | 1.01 ± 0.097 |
| TAAAGAGTCG | 1.02 ± 0.063 |
| TAAAGATATC | 0.972 ± 0.028 |
| TAAAGCATTA | 1.04 ± 0.025 |
| TAAAGCGTAG | 0.998 ± 0.027 |
| TAAAGGAAAG | 1.02 ± 0.03 |
| TAAAGGAAGG | 0.9801 ± 0.0066 |
| TAAAGGATAA | 0.9849 ± 0.0093 |

| Sequence | switch fluorescence ratio |
| --- | --- |
| TAAAGGGGGT | 1.01 ± 0.047 |
| TAAAGGTATC | 0.9977 ± 0.0048 |
| TAAAGGTCAG | 0.996 ± 0.018 |
| TAAAGGTGTA | 1 ± 0.026 |
| TAAAGTACGT | 1.11 ± 0.021 |
| TAAAGTAGAT | 0.988 ± 0.027 |
| TAAAGTATAT | 0.9976 ± 0.004 |
| TAAAGTCCGA | 1.014 ± 0.0028 |
| TAAAGTGTTG | 1.02 ± 0.024 |
| TAAATAGAAT | 1.11 ± 0.1 |
| TAAATATGGG | 0.999 ± 0.034 |
| TAAATCAGAG | 0.99 ± 0.03 |
| TAAATCGTAG | 0.991 ± 0.0099 |
| TAAATCTCTG | 1.004 ± 0.0055 |
| TAAATGATTT | 1.01 ± 0.014 |
| TAAATGGTCC | 1.073 ± 0.0063 |
| TAAATGTCAT | 0.998 ± 0.027 |
| TAAATGTGGA | 0.972 ± 0.03 |
| TAAATTAGCT | 1.02 ± 0.037 |
| TAAATTAGGA | 0.988 ± 0.074 |
| TAAATTTATA | 0.992 ± 0.021 |
| TAAATTTATT | 1.01 ± 0.017 |
| TAAATTTGAC | 0.996 ± 0.036 |

| Sequence | switch fluorescence ratio |
| --- | --- |
| TAACAAGGCA | 0.985 ± 0.013 |
| TAACACAGTC | 1.04 ± 0.054 |
| TAACACTAGC | 1.011 ± 0.0037 |
| TAACAGGTTG | 1.02 ± 0.019 |
| TAACCAATTT | 1.01 ± 0.018 |
| TAACCCGGTT | 0.999 ± 0.042 |
| TAACCGATAT | 0.99434 ± 0.00034 |
| TAACCTCGCG | 1.04 ± 0.02 |
| TAACGAAAAA | 1.03 ± 0.062 |
| TAACGGACGT | 1.01 ± 0.054 |
| TAACGGACTA | 1.29 ± 0.023 |
| TAACGGCATC | 1.08 ± 0.036 |
| TAACGGCGCG | 1.028 ± 0.0024 |
| TAACGGGCTG | 1.07 ± 0.054 |
| TAACGGGGTT | 0.9826 ± 0.00097 |
| TAACGGTATA | 1.11 ± 0.058 |
| TAACGTGGGA | 0.996 ± 0.058 |
| TAACGTGGTG | 1.05 ± 0.019 |
| TAACTATTT | 1 ± 0.046 |
| TAACTCTGAG | 0.979 ± 0.015 |
| TAACTGCAGA | 1.01 ± 0.038 |
| TAACTTCGTG | 1.01 ± 0.031 |
| TAAGAACATT | 1.03 ± 0.1 |

| Sequence | switch fluorescence ratio |
| --- | --- |
| TAAGAAGATT | 0.986 ± 0.024 |
| TAAGAAGTCC | 0.977 ± 0.045 |
| TAAGAATTCC | 1.08 ± 0.047 |
| TAAGACGGGG | 1.01 ± 0.034 |
| TAAGAGCGTA | 1.0055 ± 0.00049 |
| TAAGAGGAGA | 0.987 ± 0.017 |
| TAAGAGGGAG | 0.966 ± 0.036 |
| TAAGAGGGTG | 1.11 ± 0.016 |
| TAAGAGTATC | 1.01 ± 0.019 |
| TAAGATCGGC | 0.974 ± 0.017 |
| TAAGATCTGA | 1.02 ± 0.051 |
| TAAGATGGTG | 0.981 ± 0.011 |
| TAAGATGTAT | 0.968 ± 0.031 |
| TAAGCCTTG | 0.996 ± 0.006 |
| TAAGCTGGCG | 1.06 ± 0.14 |
| TAAGCTGTTA | 0.981 ± 0.038 |
| TAAGCTTAGT | 1.001 ± 0.0065 |
| TAAGGACGAG | 1.02 ± 0.013 |
| TAAGGAGGAT | 1 ± 0.017 |
| TAAGGAGTGG | 1.03 ± 0.073 |
| TAAGGATGGT | 0.997 ± 0.01 |
| TAAGGCACGC | 1.01 ± 0.027 |
| TAAGGCTACA | 1.01 ± 0.016 |

| Sequence | switch fluorescence ratio |
| --- | --- |
| TAAGGCTGAC | 1.15 ± 0.023 |
| TAAGGCTGTG | 1 ± 0.017 |
| TAAGGGAGGG | 1.05 ± 0.029 |
| TAAGGGCGGC | 0.995 ± 0.043 |
| TAAGGGCTGC | 1.036 ± 0.0084 |
| TAAGGGGAGT | 1.01 ± 0.038 |
| TAAGGGGCCA | 1.024 ± 0.0088 |
| TAAGGGGCGT | 1.03 ± 0.035 |
| TAAGGGGGCG | 1 ± 0.023 |
| TAAGGGGGGA | 1.03 ± 0.08 |
| TAAGGGGGGG | 1 ± 0.029 |
| TAAGGGGTAC | 1 ± 0.013 |
| TAAGGTACGA | 1.052 ± 0.0032 |
| TAAGGTACTG | 0.984 ± 0.086 |
| TAAGGTCGGC | 0.986 ± 0.028 |
| TAAGGTTCTC | 0.96 ± 0.015 |
| TAAGGTTGGT | 0.987 ± 0.028 |
| TAAGTAAGGG | 1 ± 0.025 |
| TAAGTAATTC | 1.08 ± 0.064 |
| TAAGTAGAG | 0.9824 ± 0.0097 |
| TAAGTAGGGG | 0.981 ± 0.023 |
| TAAGTAGGGT | 1.01 ± 0.023 |
| TAAGTATGCC | 0.963 ± 0.06 |

| Sequence | switch fluorescence ratio |
| --- | --- |
| TAAGTATGGT | 1.03 ± 0.046 |
| TAAGTCAGCT | 1 ± 0.032 |
| TAAGTCCCGG | 0.984 ± 0.05 |
| TAAGTCGGGA | 0.952 ± 0.025 |
| TAAGTGAAAG | 0.986 ± 0.022 |
| TAAGTGACAA | 1.05 ± 0.019 |
| TAAGTGACAG | 1.01 ± 0.063 |
| TAAGTGCAT | 1.0026 ± 4.4e-05 |
| TAAGTGGTA | 0.993 ± 0.042 |
| TAAGTGGTTT | 1 ± 0.019 |
| TAAGTGTAAA | 0.986 ± 0.013 |
| TAAGTTAGTG | 1 ± 0.016 |
| TAAGTTGACT | 1.06 ± 0.078 |
| TAAGTTGGGA | 0.98 ± 0.031 |
| TAAGTTTTCC | 1.03 ± 0.032 |
| TAATAAGCGG | 0.976 ± 0.035 |
| TAATAAGGGG | 1.02 ± 0.028 |
| TAATAAGTA | 0.97 ± 0.012 |
| TAATAATGAG | 0.981 ± 0.011 |
